Assay results published in article PMC7050208.

Test system: N[C@@H](CCOP(=O)(O)O)C(=O)O
Assay: coupled MESG/PNP phosphate release, A360
Assay type: biochemical, Bacillus spizizenii
Details: 50 mM HEPES-NaOH pH 7.5, 100 μM PLP

| Substance | Km (0.1 μM enzyme) [µM] | kcat (0.1 μM enzyme) [s⁻¹] | Km (0.25 μM enzyme) [µM] | kcat (0.25 μM enzyme) [s⁻¹] |
| --- | --- | --- | --- | --- |
| BsThrC (Bacillus spizizenii) | 329 | 1.74 | – | – |
| RhiB (Bacillus spizizenii ATCC 6633 = JCM 2499) | – | – | 824 | 0.60 |
